Where two headings read alike, the source gives them in different places.
Legend:
[1] = molecular target: T1, LILRB2 on human monocyte-derived macrophages (HMDM) (human, UniProt Q8N423 22-597); assay: cell-based or functional assay
[2] = molecular target: T1, LILRB2 on human monocyte-derived …; assay: cell-based or functional assay; remark: listed apart in the source

T1 sequence (Q8N423 22-597): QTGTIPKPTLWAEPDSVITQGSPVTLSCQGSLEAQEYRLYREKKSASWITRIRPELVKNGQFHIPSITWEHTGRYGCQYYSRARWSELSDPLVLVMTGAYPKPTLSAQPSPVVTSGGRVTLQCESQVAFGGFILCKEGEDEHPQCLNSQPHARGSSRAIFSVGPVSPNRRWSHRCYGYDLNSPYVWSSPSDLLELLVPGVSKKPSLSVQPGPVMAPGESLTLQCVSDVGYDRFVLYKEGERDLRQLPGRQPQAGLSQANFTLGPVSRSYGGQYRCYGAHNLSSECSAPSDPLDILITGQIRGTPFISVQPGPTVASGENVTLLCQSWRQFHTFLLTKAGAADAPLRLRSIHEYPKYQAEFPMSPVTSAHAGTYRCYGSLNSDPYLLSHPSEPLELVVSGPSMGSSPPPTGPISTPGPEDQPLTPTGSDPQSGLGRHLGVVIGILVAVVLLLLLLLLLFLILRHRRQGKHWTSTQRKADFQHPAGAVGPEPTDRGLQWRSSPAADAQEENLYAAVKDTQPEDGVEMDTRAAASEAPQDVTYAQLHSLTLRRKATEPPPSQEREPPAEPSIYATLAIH

| Binder | CD86 EC50 [nM], re-polarization of M2 macrophages [1] | CD163 EC50 [nM], re-polarization of M2 macrophages [1] | CD206 EC50 [nM], re-polarization of M2 macrophages [1] | IL-1β EC50 [nM], LPS-driven cytokine secretion by HMDM [1] | IL-6 EC50 [nM], LPS-driven cytokine secretion by HMDM [1] | TNF-α EC50 [nM], LPS-driven cytokine secretion by HMDM [1] | IL-1β EC50 [nM], LPS-driven cytokine secretion by HMDM [2] | IL-6 EC50 [nM], LPS-driven cytokine secretion by HMDM [2] | TNF-α EC50 [nM], LPS-driven cytokine secretion by HMDM [2] |
| --- | --- | --- | --- | --- | --- | --- | --- | --- | --- |
| PRO3697, scFv (VL-linker-VH) 69-06-G04-sc05_(VL_A67G_S68G; VH_T101S_L146K) (scFv) scFv: AFQLTQSPSSLSASVGDRVTITCQASQSIGTYLAWYQQKPGKPPKLLIYRGGTLASGVPSRFSGSGSGTDFTLTISSLQPEDFATYYCQSYDSSNTFGTGTKVTVLGGGGGSGGGGSGGGGSGGGGSQEQLVESGGGLVQPGRSLRLSCAASGFDLSADYMCWVRQAPGKGLEWIACIYIDDDNTYYATWAKGRFTISKDNSKNTVYLQMNSLRAEDSAVYFCARGYGVYTGAITYFTLWGQGTLVKVSS | 0.214 nM | 0.173 nM | 0.512 nM | 0.279 nM | 0.45 nM | 2.2 nM | – | – | – |
| PRO3744, scFv (VL-linker-VH) 68-18-E11-sc07_(VL_A67G_S68G_T141C; VH_G51C_T101S_T146K) (scFv) scFv: DVQMTQSPSSLSASVGDRVTITCQASQSIGSNLAWYQQKPGKPPKLLIYKGGTLESGVPSRFSGSGSGTDFTLTISSLQPEDFATYYCQSTAGSSRSGNYGYVFGCGTKVTVLGGGGGSGGGGSGGGGSGGGGSQQLVESGGGLVQPGGSLRLSCAASGFSFTNNYYMCWVRQAPGKCLEWIACMLVGAWGNTYYASWANGRFTISKDNSKNTVYLQMNSLRAEDSAVYFCARARDYTWTLGGDPETSGFNLWGQGTLVKVSS | 0.117 nM | 0.107 nM | 0.136 nM | 0.779 nM | 0.803 nM | 1.1 nM | – | – | – |
| PRO3696, scFv (VL-linker-VH) 69-01-E02-sc06_(VL_A67G_S68G; VH_T101S_L146K) (scFv) scFv: DVQMTQSPSSLSASVGDRVTITCQASQSIGLNLAWYQQKPGKPPKLLIYAGGYLASGVSSRFSGSGSGTDFTLTISSLQPEDFATYYCQSTYDGSSFVFAFGTGTKVTVLGGGGGSGGGGSGGGGSGGGGSQEQLVESGGGLVQPGGSLRLSCAASGFSFSSSSYMCWVRQAPGKGLEWIACMVTGSSDDTDYASWAKGRFTISKDNSKNTVYLQMNSLRAEDSAVYFCARAGSAPLWGQGTLVKVSS | 0.243 nM | 0.371 nM | 0.587 nM | 0.446 nM | 0.804 nM | 0.891 nM | – | – | – |
| PRO4710 (IgG4 of scFv PRO3744, 68-18-E11-sc07) (antibody, V domains shown) VH: QQLVESGGGLVQPGGSLRLSCAASGFSFTNNYYMCWVRQAPGKGLEWIACMLVGAWGNTYYASWANGRFTISKDNSKNTVYLQMNSLRAEDTAVYFCARARDYTWTLGGDPETSGFNLWGQGTLVTVSS VL: DVQMTQSPSSLSASVGDRVTITCQASQSIGSNLAWYQQKPGKPPKLLIYKGGTLESGVPSRFSGSGSGTDFTLTISSLQPEDFATYYCQSTAGSSRSGNYGYVFGQGTKVEIKR | – | – | – | – | – | – | 0.248 nM | 0.153 nM | 0.169 nM |
| PRO4672 (37-20-B03-based PDL1-BD), anti-CD47 x PDL1 x LILRB2, (scFv)2-Fc-(scFv)2 (trispecific antibody) chain 1: DVQMTQSPSSLSASVGDRVTITCQASQSISSWVSWYQQKPGKPPKLLIYRGGYLESGVPSRFSASGSGTDFTLTISSLQPEDFATYYCQSTDSSTYGGAFGCGTKVTVLGGGGGSGGGGSGGGGSGGGGSQQVVESGGGLVQPGGSLRLSCAVSGIDLNSYAMTWVRQAPGKCLEWIGYIGSASSTYYASWASGRFTISKDNSKNTVYLQMNSLRAEDSAVYFCARGSTYINIWGQGTLVKVSSEPKSSDKTHTCPPCPAPELLGGPSVFLFPPKPKDTLMISRTPEVTCVVVDVSHEDPEVKFNWYVDGVEVHNAKTKPREEQYNSTYRVVSVLTVLHQDWLNGKEYKCKVSNKALPAPIEKTISKAKGQPREPQVYTLPPCREEMTKNQVSLSCAVKGFYPSDIAVEWESNGQPENNYKTTPPVLDSDGSFFLVSKLTVDKSRWQQGNVFSCSVMHEALHNHYTQKSLSLSPGKGGGGSGGGGSDVQMTQSPSSLSASVGDRVTITCQASQSIGSNLAWYQQKPGKPPKLLIYKGGTLESGVPSRFSGSGSGTDFTLTISSLQPEDFATYYCQSTAGSSRSGNYGYVFGCGTKVTVLGGGGGSGGGGSGGGGSGGGGSQQLVESGGGLVQPGGSLRLSCAASGFSFTNNYYMCWVRQAPGKCLEWIACMLVGAWGNTYYASWANGRFTISKDNSKNTVYLQMNSLRAEDSAVYFCARARDYTWTLGGDPETSGFNLWGQGTLVKVSS chain 2: not shown | – | – | – | – | – | – | 0.096 nM | 0.078 nM | 0.123 nM |
| PRO5055 (PRO4687 with 33-03-G02-based PDL1-BD), anti-CD47 x PDL1 x LILRB2 (trispecific antibody, human IgG1, kappa) DVQMTQSPSSLSASVGDRVTITCQASQSISSWVSWYQQKPGKPPKLLIYRGGYLESGVPSRFSASGSGTDFTLTISSLQPEDFATYYCQSTDSSTYGGAFGCGTKVTVLGGGGGSGGGGSGGGGSGGGGSQQVVESGGGLVQPGGSLRLSCAVSGIDLNSYAMTWVRQAPGKCLEWIGYIGSASSTYYASWASGRFTISKDNSKNTVYLQMNSLRAEDSAVYFCARGSTYINIWGQGTLVKVSSEPKSSDKTHTCPPCPAPELLGGPSVFLFPPKPKDTLMISRTPEVTCVVVDVSHEDPEVKFNWYVDGVEVHNAKTKPREEQYNSTYRVVSVLTVLHQDWLNGKEYKCKVSNKALPAPIEKTISKAKGQPREPQVYTLPPCREEMTKNQVSLSCAVKGFYPSDIAVEWESNGQPENNYKTTPPVLDSDGSFFLVSKLTVDKSRWQQGNVFSCSVMHEALHNHYTQKSLSLSPGKGGGGSGGGGSDVQMTQSPSSLSASVGDRVTITCQASQSIGSNLAWYQQKPGKPPKLLIYKGGTLESGVPSRFSGSGSGTDFTLTISSLQPEDFATYYCQSTAGSSRSGNYGYVFGCGTKVTVLGGGGGSGGGGSGGGGSGGGGSQQLVESGGGLVQPGGSLRLSCAASGFSFTNNYYMCWVRQAPGKCLEWIACMLVGAWGNTYYASWANGRFTISKDNSKNTVYLQMNSLRAEDSAVYFCARARDYTWTLGGDPETSGFNLWGQGTLVKVSS heavy: not shown light: DIQMTQSPSSLSASVGDRVTITCQASQSINDYLAWYQQKPGKAPKLLIYKGGTLASGVPSRFSGSGSGTDFTLTISSLQPEDFATYYCQQGYIITDIDNVFGQGTKVEIKRTVAAPSVFIFPPSDEQLKSGTASVVCLLNNFYPREAKVQWKVDNALQSGNSQESVTEQDSKDSTYSLSSTLTLSKADYEKHKVYACEVTHQGLSSPVTKSFNRGEC | – | – | – | – | – | – | 0.0705 nM | 0.063 nM | 0.141 nM |
| PRO4687 (37-20-B03-based PDL1-BD), anti-CD47 x PDL1 x LILRB2 (trispecific antibody, human IgG1, kappa) DVQMTQSPSSLSASVGDRVTITCQASQSISSWVSWYQQKPGKPPKLLIYRGGYLESGVPSRFSASGSGTDFTLTISSLQPEDFATYYCQSTDSSTYGGAFGCGTKVTVLGGGGGSGGGGSGGGGSGGGGSQQVVESGGGLVQPGGSLRLSCAVSGIDLNSYAMTWVRQAPGKCLEWIGYIGSASSTYYASWASGRFTISKDNSKNTVYLQMNSLRAEDSAVYFCARGSTYINIWGQGTLVKVSSEPKSSDKTHTCPPCPAPELLGGPSVFLFPPKPKDTLMISRTPEVTCVVVDVSHEDPEVKFNWYVDGVEVHNAKTKPREEQYNSTYRVVSVLTVLHQDWLNGKEYKCKVSNKALPAPIEKTISKAKGQPREPQVYTLPPCREEMTKNQVSLSCAVKGFYPSDIAVEWESNGQPENNYKTTPPVLDSDGSFFLVSKLTVDKSRWQQGNVFSCSVMHEALHNHYTQKSLSLSPGKGGGGSGGGGSDVQMTQSPSSLSASVGDRVTITCQASQSIGSNLAWYQQKPGKPPKLLIYKGGTLESGVPSRFSGSGSGTDFTLTISSLQPEDFATYYCQSTAGSSRSGNYGYVFGCGTKVTVLGGGGGSGGGGSGGGGSGGGGSQQLVESGGGLVQPGGSLRLSCAASGFSFTNNYYMCWVRQAPGKCLEWIACMLVGAWGNTYYASWANGRFTISKDNSKNTVYLQMNSLRAEDSAVYFCARARDYTWTLGGDPETSGFNLWGQGTLVKVSS heavy: not shown light: DIQMTQSPSSLSASVGDRVTITCQASQSIGTYLAWYQQKPGKPPKLLIYRGGILASGVPSRFSGSGSGTDFTLTISSLQPEDFATYYCQSNFYSDSTTIGPNAFGQGTKVEIKRTVAAPSVFIFPPSDEQLKSGTASVVCLLNNFYPREAKVQWKVDNALQSGNSQESVTEQDSKDSTYSLSSTLTLSKADYEKHKVYACEVTHQGLSSPVTKSFNRGEC | – | – | – | – | – | – | 0.205 nM | 0.097 nM | 0.175 nM |
| PRO5052 (PRO4672 with 33-03-G02-based PDL1-BD), anti-CD47 x PDL1 x LILRB2, (scFv)2-Fc-(scFv)2 (trispecific antibody) chain 1: DVQMTQSPSSLSASVGDRVTITCQASQSISSWVSWYQQKPGKPPKLLIYRGGYLESGVPSRFSASGSGTDFTLTISSLQPEDFATYYCQSTDSSTYGGAFGCGTKVTVLGGGGGSGGGGSGGGGSGGGGSQQVVESGGGLVQPGGSLRLSCAVSGIDLNSYAMTWVRQAPGKCLEWIGYIGSASSTYYASWASGRFTISKDNSKNTVYLQMNSLRAEDSAVYFCARGSTYINIWGQGTLVKVSSEPKSSDKTHTCPPCPAPELLGGPSVFLFPPKPKDTLMISRTPEVTCVVVDVSHEDPEVKFNWYVDGVEVHNAKTKPREEQYNSTYRVVSVLTVLHQDWLNGKEYKCKVSNKALPAPIEKTISKAKGQPREPQVYTLPPCREEMTKNQVSLSCAVKGFYPSDIAVEWESNGQPENNYKTTPPVLDSDGSFFLVSKLTVDKSRWQQGNVFSCSVMHEALHNHYTQKSLSLSPGKGGGGSGGGGSDVQMTQSPSSLSASVGDRVTITCQASQSIGSNLAWYQQKPGKPPKLLIYKGGTLESGVPSRFSGSGSGTDFTLTISSLQPEDFATYYCQSTAGSSRSGNYGYVFGCGTKVTVLGGGGGSGGGGSGGGGSGGGGSQQLVESGGGLVQPGGSLRLSCAASGFSFTNNYYMCWVRQAPGKCLEWIACMLVGAWGNTYYASWANGRFTISKDNSKNTVYLQMNSLRAEDSAVYFCARARDYTWTLGGDPETSGFNLWGQGTLVKVSS chain 2: not shown | – | – | – | – | – | – | 0.082 nM | 0.077 nM | 0.117 nM |
